# Reference: patent US20230012273A1 (Boehringer Ingelheim, published 2023)
# Residue numbers refer to the chain shown, from its start.
# B1: Antibody E20 (antibody, human IgG1, kappa, L234A L235A, V domains shown)
# VH: QVQLQESGPGLVRPSETLSLTCTVSGGSIRNYYWSWIRQPPGKGLEWIGFIYYTGRTFYNPSLKSRVTISLDMSINQFSLKMTSVTAADTAVYYCARVRAYSGIGLDGTDVWGQGTTVTVSS
# VL: DIVMTQSPLSLPVTPGEPASISCKSSQSLLYSNAYNYLDWYLQRPGQSPQLLIYLGSNRASGVPDRFSGSGSGTDFTLKISRVEAEDVGVYYCMQALQTPLTFGGGTKVEIKR
# B2: Antibody E21 (antibody, human IgG1, kappa, L234A L235A, V domains shown)
# VH: B1 VH with I75K
# VL: B1 VL
# B3: Antibody A (antibody, human IgG1, kappa, L234A L235A)
# heavy: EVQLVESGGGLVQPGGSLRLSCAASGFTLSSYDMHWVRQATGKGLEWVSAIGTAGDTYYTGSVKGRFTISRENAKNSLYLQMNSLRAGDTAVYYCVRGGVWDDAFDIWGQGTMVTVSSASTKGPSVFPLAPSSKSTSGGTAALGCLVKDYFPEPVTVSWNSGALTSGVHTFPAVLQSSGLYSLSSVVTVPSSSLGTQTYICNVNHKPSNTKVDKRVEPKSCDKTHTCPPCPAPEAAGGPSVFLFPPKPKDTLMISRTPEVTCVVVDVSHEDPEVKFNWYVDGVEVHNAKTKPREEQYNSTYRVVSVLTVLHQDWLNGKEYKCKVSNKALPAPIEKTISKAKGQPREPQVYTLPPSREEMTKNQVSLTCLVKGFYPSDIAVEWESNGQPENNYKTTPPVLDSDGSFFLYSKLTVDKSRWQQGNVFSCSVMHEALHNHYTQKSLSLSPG
# light: DIQMTQSPSSLSASVGDRVTITCRASQDINNYLAWFQQKPGKAPKSLIYTASSLHSGVPSKFSGSGSGTDFTLTISSLQPEDFATYYCQQYVSYPYTFGQGTKLEIKRTVAAPSVFIFPPSDEQLKSGTASVVCLLNNFYPREAKVQWKVDNALQSGNSQESVTEQDSKDSTYSLSSTLTLSKADYEKHKVYACEVTHQGLSSPVTKSFNRGEC
# B4: Antibody E2 (antibody, human IgG1, kappa, L234A L235A, V domains shown)
# VH: B1 VH with T54N
# VL: B1 VL with A34G, N36A
# B5: Antibody E5 (antibody, human IgG1, kappa, L234A L235A, V domains shown)
# VH: B1 VH with T54N, M73K, I75K
# VL: B1 VL with A34G, N36A, L55Q, Y91F
# B6: Antibody E6 (antibody, human IgG1, kappa, L234A L235A, V domains shown)
# VH: B1 VH with T54N, M73K, I75K
# VL: B1 VL with A34G, N36A
# B7: Antibody E7 (antibody, human IgG1, kappa, L234A L235A, V domains shown)
# VH: B1 VH with T54N, M73T, I75K
# VL: B1 VL with A34G, N36A, L55Q, Y91F
# B8: Antibody E8 (antibody, human IgG1, kappa, L234A L235A, V domains shown)
# VH: B1 VH with I48M, Y53D, T54N, I75M
# VL: B1 VL with A34G, N36A, L55Q, Y91F
# B9: Antibody E9 (antibody, human IgG1, kappa, L234A L235A, V domains shown)
# VH: B1 VH with T54N
# VL: B1 VL
# B10: Antibody E12 (antibody, human IgG1, kappa, L234A L235A, V domains shown)
# VH: B1 VH with T54N, I75K
# VL: B1 VL
# Key:
# [1] = biological target: T1, cynoSIRPα (XP_015313155), Extracellular Domain + His-Tag (cynomolgus monkey); experiment: SPR, antibody captured on Protein A/G, ECD-His analyte, 1:1 fit
# T1 construct: also called CySIRPα XP_015313155; not shown: His-Tag
# T1 chain: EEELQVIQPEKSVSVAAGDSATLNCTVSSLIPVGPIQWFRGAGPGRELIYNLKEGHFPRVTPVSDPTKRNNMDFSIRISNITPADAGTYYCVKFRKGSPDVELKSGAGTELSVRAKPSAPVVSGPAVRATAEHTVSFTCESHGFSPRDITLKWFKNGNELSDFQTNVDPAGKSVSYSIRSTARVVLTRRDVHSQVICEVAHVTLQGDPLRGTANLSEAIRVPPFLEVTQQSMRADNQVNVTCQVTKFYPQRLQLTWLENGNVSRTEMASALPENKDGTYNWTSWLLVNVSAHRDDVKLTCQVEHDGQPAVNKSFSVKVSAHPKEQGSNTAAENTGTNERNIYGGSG
# Summary of the method: (§1)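 Analyte was His-tagged SIRPα extracellular domain in dilution series, associating 300 s and dissociating 600 s at 30 μl/min. Ligand was antibody captured (~240 RU) on immobilized Protein A/G (~3000 RU). Running buffer HBS-EP+.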
# [2] = biological target: T2, Human SIRPαV1 (NP_542970.1), Extracellular Domain + His-Tag (human, UniProt P78324 31-373); experiment: as above
# T2 construct: also called huSIRPαV1; hSIRPαV1; not shown: His-Tag
# T2 sequence (P78324 other isoform, or with tags, fused parts or gaps): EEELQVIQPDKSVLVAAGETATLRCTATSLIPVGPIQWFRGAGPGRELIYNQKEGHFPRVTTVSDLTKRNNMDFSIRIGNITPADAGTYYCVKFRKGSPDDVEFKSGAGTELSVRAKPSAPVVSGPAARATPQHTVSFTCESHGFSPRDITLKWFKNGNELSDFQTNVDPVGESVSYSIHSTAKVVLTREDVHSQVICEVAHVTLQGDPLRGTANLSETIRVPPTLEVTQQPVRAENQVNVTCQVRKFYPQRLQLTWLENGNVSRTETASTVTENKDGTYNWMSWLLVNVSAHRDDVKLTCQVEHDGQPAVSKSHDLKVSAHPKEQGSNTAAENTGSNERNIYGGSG
# Summary of the method: as §1
# [3] = biological target: T3, Human SIRPαV2 (CAA71403.1), Extracellular Domain + His-Tag (human, UniProt P78324 31-373); experiment: as above
# T3 construct: also called huSIRPαV2; hSIRPαV2; not shown: His-Tag
# T3 sequence (P78324 other isoform, or with tags, fused parts or gaps): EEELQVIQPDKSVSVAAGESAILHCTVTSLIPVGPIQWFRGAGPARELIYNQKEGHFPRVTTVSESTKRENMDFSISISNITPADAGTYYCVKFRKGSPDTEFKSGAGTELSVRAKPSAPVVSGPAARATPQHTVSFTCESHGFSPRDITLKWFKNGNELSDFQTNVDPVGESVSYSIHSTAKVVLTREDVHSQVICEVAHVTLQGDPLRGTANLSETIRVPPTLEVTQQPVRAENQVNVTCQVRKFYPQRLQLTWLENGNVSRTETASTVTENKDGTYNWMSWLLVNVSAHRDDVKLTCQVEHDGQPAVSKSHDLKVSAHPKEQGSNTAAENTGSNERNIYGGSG
# Summary of the method: as §1
# [4] = biological target: T4, cynoSIRPα (NP_001271679), Extracellular Domain + His-Tag (cynomolgus monkey); experiment: as above
# T4 construct: also called CySIRPα NP_001271679; not shown: His-Tag
# T4 chain: T1 chain with P62A, F163V, V185L
# Summary of the method: as §1
# [5] = biological target: T5, cynoSIRPα (EGM_02252), Extracellular Domain + His-Tag (cynomolgus monkey); experiment: SPR, antibody captured on Protein A/G, ECD-His analyte
# T5 construct: also called CySIRPα EGM_02252; not shown: His-Tag
# T5 chain: T1 chain with D19E, V27A, S28T, A42V, N51H, L52Q, V227F, T245M
# Summary of the method: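 Anti-SIRPα antibodies (~1 ug/ml) were captured on a Protein A/G CM5 surface to ~240 RU in HBS-EP+ running buffer (Biacore 8K+). His-tagged ECD analyte dilutions were injected with 300 s association at 30 μl/min and 600 s dissociation.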
# [6] = biological target: T1, cynoSIRPα (XP_015313155), Extracellular …; experiment: SPR, antibody captured on Protein A/G, ECD-His analyte, steady-state fit
# Description: (§2) The binding kinetics of anti-SIRPα antibodies to various SIRPα analytes are determined by surface plasmon resonance (SPR) using a Biacore 8K+(Cytiva). 1×HBS-EP+(Cytiva) is used as running buffer and for all the dilutions unless stated otherwise. The Series S CM5 sensorchip is activated with a 1:1 mixture of 0.1 M NHS (N-hydroxysuccinimide) and 0.4 M EDC (1-Ethyl-3-(3-dimethylaminopropyl) carbodiimide hydrochloride) for 420 seconds at a flow rate of 10 μl/min and immobilized with Protein A/G (Thermo Scientific, 10 μg/ml in 10 mM acetate pH 4.5) for 420 seconds at a flowrate of 10 μl/min resulting in approximately 3000 RU of Protein A/G on the surface. The sensorchip is then deactivated with 1 M ethanolamine HCl pH 8.5 for 420 seconds at a flowrate of 10 μl/min.
# (§3) Antibodies (approximately 1 ug/ml) are captured on the Protein A/G surface for 60 seconds at a flowrate of 10 μl/min resulting in capture levels of approximately 240 RU. Dilutions of each SIRP protein (Extracellular Domain+His-Tag, with the concentrations as indicated) are injected as analytes over the captured antibody for 300 seconds of association at a flowrate of 30 μl/min, followed by a dissociation for 600 seconds.
# (§4) The above procedures are used to measure binding properties of antibodies of the present disclosure. For each analyte used, the highest concentration was as indicated in Example 3 (see Table 36).
# [7] = biological target: T5, cynoSIRPα (EGM_02252), Extracellular …; experiment: as above
# Description: as §2, §3, §4
# [8] = biological target: T6, human SIRPβ1 extracellular domain + His-tag (NP_006056.2) (human, UniProt O00241 30-371); experiment: SPR, Ab captured, ECD-His analyte
# T6 construct: also called hSIRPβ1; HuSIRPβ1
# T6 sequence (O00241 other isoform, or with tags, fused parts or gaps): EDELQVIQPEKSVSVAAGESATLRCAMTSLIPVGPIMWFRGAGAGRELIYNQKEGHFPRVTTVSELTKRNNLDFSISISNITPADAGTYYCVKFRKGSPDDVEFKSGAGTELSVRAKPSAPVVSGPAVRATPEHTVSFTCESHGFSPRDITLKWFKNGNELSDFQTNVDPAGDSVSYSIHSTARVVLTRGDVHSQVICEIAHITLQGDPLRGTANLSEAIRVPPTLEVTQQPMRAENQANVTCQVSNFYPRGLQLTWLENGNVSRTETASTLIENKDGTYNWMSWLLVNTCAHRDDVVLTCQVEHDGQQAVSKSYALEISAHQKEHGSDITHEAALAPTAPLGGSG
# Description: (§5) The binding affinity of anti-SIRPα antibodies to the various SIRPα analytes is determined by surface plasmon resonance (SPR) using a ProteOn XPR36 (Bio-Rad). The running buffer for this experiment and all dilutions (except where stated) are done in 1×HBS-EP+. […] The sensorchip is deactivated with 1M ethanolamine HCl for 420 sec at a flowrate of 10 μl/min.
# (§6) The analyte is injected over the captured antibody for 300 sec at a flowrate of 30 μl/min. The dissociation is done for 600 sec. Two-fold serial dilutions of each SIRP protein (Extracellular Domain+His-Tag) are injected as analyte with the highest concentrations indicated in table 36 below.
# [9] = biological target: T7, human SIRPβL/SIRPβ1v3 extracellular domain + His-tag (NP_001129316.1) (human, UniProt Q5TFQ8 30-371); experiment: SPR, Ab captured, ECD-His analyte
# T7 construct: also called hSIRPβ1v3; HuSIRPβ1v3
# T7 sequence (Q5TFQ8 other isoform, or with tags, fused parts or gaps): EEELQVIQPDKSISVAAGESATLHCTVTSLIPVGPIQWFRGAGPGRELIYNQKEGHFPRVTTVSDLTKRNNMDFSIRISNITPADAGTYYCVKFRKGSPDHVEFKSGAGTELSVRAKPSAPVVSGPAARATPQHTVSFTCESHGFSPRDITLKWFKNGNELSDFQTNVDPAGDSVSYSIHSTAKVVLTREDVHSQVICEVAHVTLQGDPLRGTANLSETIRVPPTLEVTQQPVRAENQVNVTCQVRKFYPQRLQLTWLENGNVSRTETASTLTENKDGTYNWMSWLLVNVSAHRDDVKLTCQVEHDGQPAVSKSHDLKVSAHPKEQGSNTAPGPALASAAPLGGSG
# Description: as §5, §6
# [10] = biological target: T8, human SIRPαV2 extracellular domain + His-tag (CAA71403.1) (human, UniProt P78324 31-373); experiment: SPR, Ab captured, ECD-His analyte
# T8 construct: also called hSIRPαV2; HuSIRPαV2
# Description: as §5, §6
# [11] = biological target: T9, human SIRPγ extracellular domain + His-tag (NP_061026.2) (human, UniProt Q9P1W8 29-360); experiment: SPR, Ab captured, ECD-His analyte
# T9 construct: also called hSIRPγ; HuSIRPγ
# T9 sequence (Q9P1W8 29-360): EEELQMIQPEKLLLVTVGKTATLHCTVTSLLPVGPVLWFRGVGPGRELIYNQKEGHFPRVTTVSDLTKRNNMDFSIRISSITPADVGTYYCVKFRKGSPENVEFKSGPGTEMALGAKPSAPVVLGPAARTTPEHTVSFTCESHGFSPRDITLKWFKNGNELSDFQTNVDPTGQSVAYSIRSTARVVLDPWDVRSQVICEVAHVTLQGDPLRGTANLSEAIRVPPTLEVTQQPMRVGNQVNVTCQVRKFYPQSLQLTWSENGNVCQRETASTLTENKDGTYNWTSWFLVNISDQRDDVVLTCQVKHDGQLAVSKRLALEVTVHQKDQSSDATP
# Description: as §5, §6
# [12] = biological target: T10, human SIRPαV1 extracellular domain + His-tag (NP_542970.1) (human, UniProt P78324 31-373); experiment: SPR, Ab captured, ECD-His analyte
# T10 construct: also called hSIRPαV1; HuSIRPαV1
# Description: as §5, §6
Binder,Kd [4] [nM],koff [4] [s⁻¹],kon [4] [M⁻¹ s⁻¹],binding result [8],Kd [9] [nM],Kd [10] [nM],binding result [11],Kd [12] [nM],Kd [8] [nM],other results
B1,111,0.0278,251000,–,–,–,–,–,–,Kd [1]: 104 nM; koff [1]: 0.0261 s⁻¹; kon [1]: 251000 M⁻¹ s⁻¹; Kd [2]: 3.42 nM; koff [2]: 0.00164 s⁻¹; kon [2]: 480000 M⁻¹ s⁻¹; Kd [3]: 1.11 nM; koff [3]: 0.000627 s⁻¹; kon [3]: 563000 M⁻¹ s⁻¹; binding result [5]: no binding (tested: 1000 nM)
B2,107,0.0242,225000,–,–,–,–,–,–,Kd [1]: 108 nM; koff [1]: 0.0245 s⁻¹; kon [1]: 228000 M⁻¹ s⁻¹; Kd [2]: 4.46 nM; koff [2]: 0.00212 s⁻¹; kon [2]: 476000 M⁻¹ s⁻¹; Kd [3]: 1.39 nM; koff [3]: 0.000761 s⁻¹; kon [3]: 549000 M⁻¹ s⁻¹; binding result [5]: no binding (tested: 1000 nM)
B3,158,0.138,873000,–,–,–,–,–,–,Kd [6]: 165 nM; Kd [7]: 258 nM
B4,–,–,–,no binding (tested: 1000 nM),1.93,0.687,no binding (tested: 1000 nM),0.912,–,–
B5,–,–,–,–,2.72,0.873,no binding (tested: 1000 nM),1.02,1380,–
B6,–,–,–,no binding (tested: 1000 nM),2.72,0.875,no binding (tested: 1000 nM),1.03,–,–
B7,–,–,–,–,2.21,1.18,no binding (tested: 1000 nM),1.2,874,–
B8,–,–,–,–,2.58,0.542,no binding (tested: 1000 nM),1.21,2420,–
B9,–,–,–,no binding (tested: 1000 nM),3.16,0.941,no binding (tested: 1000 nM),1.22,–,–
B10,–,–,–,–,3.43,1.26,no binding (tested: 1000 nM),1.67,1670,–
